From patent US20250326843A1 (HARBOUR BIOMED SHANGHAI, published 2025)

Experiments:
murine B7-H4 = molecular target: T1, murine B7-H4 (murine, UniProt Q7TSP5 25-257); test: flow cytometry on CHO-K1/mB7-H4 cells
T1 construct: whole, on cells; also called mB7-H4
T1 sequence (looked up): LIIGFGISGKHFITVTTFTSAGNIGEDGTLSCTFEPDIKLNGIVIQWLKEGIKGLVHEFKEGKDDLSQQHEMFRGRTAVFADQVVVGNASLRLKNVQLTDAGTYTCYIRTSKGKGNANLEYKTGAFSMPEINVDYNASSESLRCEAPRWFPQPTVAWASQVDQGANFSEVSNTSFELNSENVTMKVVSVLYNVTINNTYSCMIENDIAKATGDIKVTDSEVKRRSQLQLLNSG
Source text: (§1) The CHO-K1 cell strain CHO-K1/huB7-H4 over-expressing human B7-H4 (produced in-house by Harbour BioMed), the CHO-K1 cell strain CHO-K1/cynoB7-H4 over-expressing cynomolgus monkey B7-H4 (produced in-house by Harbour BioMed), the CHO-K1 cell strain CHO-K1/mB7-H4 over-expressing murine B7-H4 (produced in-house by Harbour BioMed), SK-BR-3 and MDA-MB-468 cells were digested. T cells were isolated using the human T cell isolation kit (Miltenyi, #130-096-535) as described in the method of the instruction, and resuspended with PBS containing 2% FBS. The cell density was adjusted to 1×10⁶ cells/mL. The cells were seeded onto a 96-well V-bottom plate (Coming, #3894) at 100 μL/well, followed by the addition of test antibodies diluted in a 3-fold gradient at a concentration that was 2 times the final concentration, each at 100 μL/well. The cells were incubated away from light at 4° C. for 2 h. Thereafter, the cells in each well were rinsed twice with 100 μL of pre-cooled PBS containing 2% BSA, and centrifuged at 500 g at 4° C. for 5 min, and then the supernatant was discarded. […] Finally, the cells in each well were resuspended with 200 μL of pre-cooled PBS containing 2% BSA, and the fluorescence signal values were read using an ACEA Novocyte3000 flow cytometer.

human B7-H4 = molecular target: T2, human B7-H4 (human, UniProt Q7Z7D3 25-282); test: flow cytometry on CHO-K1/huB7-H4 cells
T2 construct: whole, on cells; also called huB7-H4; B7-H4 on CHO-K1/huB7-H4, SK-BR-3 and MDA-MB-468 cells
T2 sequence (looked up): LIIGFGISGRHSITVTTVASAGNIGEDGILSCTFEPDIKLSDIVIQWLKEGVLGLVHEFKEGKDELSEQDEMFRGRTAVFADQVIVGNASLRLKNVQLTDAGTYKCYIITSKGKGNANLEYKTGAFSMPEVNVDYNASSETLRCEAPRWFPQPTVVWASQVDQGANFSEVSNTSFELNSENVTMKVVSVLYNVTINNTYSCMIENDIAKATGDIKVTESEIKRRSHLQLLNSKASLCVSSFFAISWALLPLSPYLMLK
Source text: as §1

Binder	binding result (murine B7-H4)	binding result (human B7-H4)
B7-H4×CD3 bispecific antibody PR003733 (bispecific antibody, human IgG1, lambda, L234A L235A, Fab-Fc-scFv asymmetric structure (structure A); CD3 arm from PR001848, B7-H4 arm from PR003366) light: QAVVTQEPSLTVSPGGTVTLTCRSSTGAVTTSNYANWVQQKPGQAPRGLIGGTNKRAPWTPARFSGSLLGDKAALTLLGAQPEDEAEYFCALWYSNLWVFGGGTKLTVLGQPKAAPSVTLFPPSSEELQANKATLVCLISDFYPGAVTVAWKADSSPVKAGVETTTPSKQSNNKYAASSYLSLTPEQWKSHRSYSCQVTHEGSTVEKTVAPTECS heavy: not shown EIVMTQSPASLSVSPGERATLSCRASQSVSSNLAWYQQKPGQAPRLLIYGASTRATGIPARVSGGGSGTEFTLTISSLQSEDFAVYYCQQYKNWPFTFGPGTKLEIKGGGGSGGGGSGGGGSGGGGSQVQLVQSGAEVKKPGSSMRVSCKASEDTFSSYAISWVRQAPGQGLEWMGGTAPIFGTTNYAQKFQGRVTITADKSTSTAYMELSSLRSEDTAVYYCARGGPYFDYWGQGTLVTVSSASEPKSSDKTHTCPPCPAPEAAGGPSVFLFPPKPKDTLMISRTPEVTCVVVDVSHEDPEVKFNWYVDGVEVHNAKTKPREEQYNSTYRVVSVLTVLHQDWLNGKEYKCKVSNKALPAPIEKTISKAKGQPREPQVCTLPPSREEMTKNQVSLSCAVKGFYPSDIAVEWESNGQPENNYKTTPPVLDSDGSFFLVSKLTVDKSRWQQGNVFSCSVMHEALHNHYTQKSLSLSPGK	binds	
B7-H4×CD3 bispecific antibody PR003899 (bispecific antibody, human IgG1, lambda, L234A L235A, Fab-Fc-scFv asymmetric structure (structure A); CD3 arm from PR003886, B7-H4 arm from PR003366) light: QAVVTQEPSLTVSPGGTVTLTCRSSTGAVTTSNYANWVQQKPGQAPRGLIGGTNKRAPWTPARFSGSLLGDKAALTLLGAQPEDEAEYFCALWYSNLWVFGGGTKLTVLGQPKAAPSVTLFPPSSEELQANKATLVCLISDFYPGAVTVAWKADSSPVKAGVETTTPSKQSNNKYAASSYLSLTPEQWKSHRSYSCQVTHEGSTVEKTVAPTECS heavy: not shown EIVMTQSPASLSVSPGERATLSCRASQSVSSNLAWYQQKPGQAPRLLIYGASTRATGIPARVSGGGSGTEFTLTISSLQSEDFAVYYCQQYKNWPFTFGPGTKLEIKGGGGSGGGGSGGGGSGGGGSQVQLVQSGAEVKKPGSSMRVSCKASEDTFSSYAISWVRQAPGQGLEWMGGTAPIFGTTNYAQKFQGRVTITADKSTSTAYMELSSLRSEDTAVYYCARGGPYFDYWGQGTLVTVSSASEPKSSDKTHTCPPCPAPEAAGGPSVFLFPPKPKDTLMISRTPEVTCVVVDVSHEDPEVKFNWYVDGVEVHNAKTKPREEQYNSTYRVVSVLTVLHQDWLNGKEYKCKVSNKALPAPIEKTISKAKGQPREPQVCTLPPSREEMTKNQVSLSCAVKGFYPSDIAVEWESNGQPENNYKTTPPVLDSDGSFFLVSKLTVDKSRWQQGNVFSCSVMHEALHNHYTQKSLSLSPGK	binds	binds
